# Substitutions are numbered along the chain they refer to.
# B1: D2M002-122 (antibody, V domains shown)
# VH: QVQLVQSGAEVKKPGASVKVSCKASGYTFTSYWIEWVRQAPGQGLEWIGEILPGEGSTNYNAKFKGRVTFTTDTSTSTAYMELRSLRSDDTAVYYCARSGAGGYDSGAFAYWGQGTLVTVSS
# VL: AIQLTQSPSSLSASVGDRVTITCRASESVDTYGNSFMHWYQQKPGKAPKLLVYRTSNLESGVPSRFSGSGSGTDFTLTISSLQPEDFATYYCQQSNEDPWTFGGGTKVEIK
# B2: D2M002-124 (antibody, V domains shown)
# VH: B1 VH with E55S
# VL: B1 VL
# B3: D2M002-101 (antibody, V domains shown)
# VH: QVQLVQSGAEVKKPGASVKVSCKASGYTFTRYVMHWVRQAPGQRLEWMGWINPNNEETKYSQKFKGRVTLTRDTSASTAYMELSSLRSEDTAVYYCARADLEILPYYDHARNAMDYWGQGTLVTVSS
# VL: DIQMTQSPSSVSASVGDRVTITCRASENIYSHLAWYQQKPGKAPKLLVYNAKSLQSGVPSRFSGSGSGTDFTLTISSLQPEDFATYYCQHFWSTPPTFGGGTKVEIK
# notes: humanized and optimized variant tested beside D2M002-002; also called P211_A12
# B4: #27 (antibody, human IgG1, V domains shown)
# VH: EVQLQQSGAELMKPGASVKISCKITGYTFSSYWIEWVKQRPGHDLEWIGEILPGSGSTNYNEKFKGKASFTADTSSNTAYMQLNSLTSEDSAVYYCARSGAGGYDSGAFAYWGQGTLVTVSA
# VL: DIVLTQSPASLAVSLGQRATISCRASESVDTYGNSFMHWYQQKPGQPPKLLIYRTSNLESGIPARFSGSGSRTDFTLTINPVEADDVATYYCQQSNEDPWTFGGGTKLEIK
# notes: also called D2M002-027
# B5: #11 (antibody, human IgG1, V domains shown)
# VH: B4 VH with I24A, S31N, D44G, N59D, K65E, S69T, N84S
# VL: B4 VL with V3Q, L4M
# notes: also called D2M002-011
# B6: #16 (antibody, human IgG1, V domains shown)
# VH: B4 VH with I24A, Y27N, S69T
# VL: B4 VL with V3E, L4M, V29I, T31S
# notes: also called D2M002-016
# B7: #22 (antibody, human IgG1, V domains shown)
# VH: B4 VH with E1Q, I24A, F29L, D44G, S69T, N84S
# VL: B4 VL
# notes: also called D2M002-022
# B8: #8 (antibody, human IgG1, V domains shown)
# VH: B4 VH with S7P, I24A, Y32S, I34T, D44G, S69T, N84S
# VL: B4 VL with V29I
# notes: also called D2M002-008
# B9: #3 (antibody, human IgG1, V domains shown)
# VH: QIQLLQSGPELVKPGASVKMSCKASGYTFTRYVMYWVKQKPGQGLEWIGYINPDNDGTKYNEKFKGKATLTSDKSSSTAYMELSSLTSEDSAVYYCARGDLELLPYYDYVRNAMDYWGQGTSVTVSS
# VL: DIQMTQSPASLSASVGETVTITCRASGNIHNYLAWYQQKQGKSPQLLVYNAKTLADGVPSRFSGSGSGTQYSLKINSLQPEDFGSYYCQHFWSTPPTFGGGTKLEIK
# notes: also called D2M002-003
# B10: #21 (antibody, human IgG1, V domains shown)
# VH: B4 VH with E1Q, I24A, Y27S, D44G, S69T, N84S
# VL: B4 VL
# notes: also called D2M002-021
# B11: #28 (antibody, human IgG1, V domains shown)
# VH: B4 VH with I24A, D44G, S69T, N84S, A122S
# VL: B4 VL with L4M
# notes: also called D2M002-028
# B12: #41 (antibody, human IgG1, V domains shown)
# VH: DVQLQQSGAELMKPGASVKISCKATGYTFSSSWIEWVKQRPGHGLEWIGEILPGSGNTSYNEKFKGKATFTADTSSSAAYMQLSSLTSEDSAVYYCARSGLYYDYGGFAYWGQGTLVTVSA
# VL: B4 VL with W100F, G104S
# notes: also called D2M002-041
# B13: #29 (antibody, human IgG1, V domains shown)
# VH: B4 VH with L11V, M12K, I24A, D44G, S69T, N84S, S91F, A92T, A110G, A122S
# VL: B4 VL with L4M, V29I, T55A
# notes: also called D2M002-029
# B14: #23 (antibody, human IgG1, V domains shown)
# VH: QVQMQQPGAELMKPGASVKISCKATGYTFSRYWIEWVKQRPGHGLEWIGEILPGDGSTNYNAKFKGQATFTADTSSNTAYMQFSSLTYEDSAVYYCARSGAGGYDSGAFAYWGQGTLVTVSS
# VL: B4 VL
# notes: also called D2M002-023
# B15: #20 (antibody, human IgG1, V domains shown)
# VH: B4 VH with E1Q, L4F, A9V, I24A, Y27N, S31N, S69T
# VL: B4 VL with L4M, T31S
# notes: also called D2M002-020
# B16: #17 (antibody, human IgG1, V domains shown)
# VH: B4 VH with I24T, Y27N, T58S, S69T
# VL: B4 VL with T31S, A64S
# notes: also called D2M002-017
# B17: #40 (antibody, human IgG1, V domains shown)
# VH: B4 VH with I24T, Y27N, S55R, Y60N, S69P, A101G
# VL: B4 VL
# notes: also called D2M002-040
# B18: #36 (antibody, human IgG1, V domains shown)
# VH: B4 VH with E1Q, K19R, I24A, Y32S, D44G, S57T, S69T, N84S, A110T
# VL: B4 VL with V29I, T55A
# notes: also called D2M002-036
# B19: #35 (antibody, human IgG1, V domains shown)
# VH: B4 VH with E1Q, K19R, I24A, Y32S, D44G, S69T, N84S, A110T
# VL: B4 VL with V29I, T55A
# notes: also called D2M002-035
# B20: #12 (antibody, human IgG1, V domains shown)
# VH: B4 VH with E1Q, V2I, Q5L, I24A, S31N, D44G, S69T, N84S, A122S
# VL: B4 VL with T31S, T89A
# notes: also called D2M002-012
# B21: #18 (antibody, human IgG1, V domains shown)
# VH: B4 VH with I24T, Y27N, S69T
# VL: B4 VL with T31S
# notes: also called D2M002-018
# B22: #31 (antibody, human IgG1, V domains shown)
# VH: QVQMQPFGAELMKPGASVRISCKATGYTFSSSWIEWVKQRPGHGLEWIGEILPGSGTTNYNEKFKGKATFTADTSSNTAYMQLSSLTSEDSAVYYCARSGAGGYDSGAFTYWGQGTLVTVSA
# VL: B4 VL with V29I, T55A
# notes: also called D2M002-031
# Target: T1, human LILRB1 expressed on cells (human, UniProt Q8NHL6 24-650)
# T1 construct: In 293T cells it was expressed from pCMV3-LILRB1-GFP; also called CHO-LILRB1; Jurkat-LILRB1
# Assay: flow cytometry, Jurkat-LILRB1 cells
# T1 sequence (Q8NHL6 other isoform, or with tags, fused parts or gaps limits assumed): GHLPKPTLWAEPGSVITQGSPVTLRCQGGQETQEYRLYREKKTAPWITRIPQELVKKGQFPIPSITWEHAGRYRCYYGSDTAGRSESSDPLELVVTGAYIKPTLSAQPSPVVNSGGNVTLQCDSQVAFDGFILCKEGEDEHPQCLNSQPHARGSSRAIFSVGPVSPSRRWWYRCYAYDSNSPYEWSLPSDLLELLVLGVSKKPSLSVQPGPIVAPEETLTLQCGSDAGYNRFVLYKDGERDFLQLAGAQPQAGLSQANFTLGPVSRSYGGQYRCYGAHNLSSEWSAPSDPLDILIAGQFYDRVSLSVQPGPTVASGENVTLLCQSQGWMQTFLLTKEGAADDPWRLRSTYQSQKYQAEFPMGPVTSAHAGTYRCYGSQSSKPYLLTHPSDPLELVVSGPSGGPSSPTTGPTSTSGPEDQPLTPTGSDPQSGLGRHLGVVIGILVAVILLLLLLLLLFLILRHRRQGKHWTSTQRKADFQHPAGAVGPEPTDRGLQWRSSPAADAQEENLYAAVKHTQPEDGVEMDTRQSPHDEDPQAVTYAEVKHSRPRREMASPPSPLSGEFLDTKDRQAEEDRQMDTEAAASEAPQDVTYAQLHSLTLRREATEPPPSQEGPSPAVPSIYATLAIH
row,EC50 [µg/mL],Binder
1,1.6,B1
2,1.86,B2
3,0.201,B3

# Target: T2, human LILRB2 expressed on cells (human, UniProt Q8N423 22-597)
# T2 construct: In 293T cells it was expressed from pCMV3-LILRB2-GFP; also called CHO-LILRB2; Jurkat-LILRB2
# Assay: flow cytometry, Jurkat-LILRB2 cells; blocked ligand: APC HLA-G monomer tetramer
# T2 sequence (Q8N423 other isoform, or with tags, fused parts or gaps limits assumed): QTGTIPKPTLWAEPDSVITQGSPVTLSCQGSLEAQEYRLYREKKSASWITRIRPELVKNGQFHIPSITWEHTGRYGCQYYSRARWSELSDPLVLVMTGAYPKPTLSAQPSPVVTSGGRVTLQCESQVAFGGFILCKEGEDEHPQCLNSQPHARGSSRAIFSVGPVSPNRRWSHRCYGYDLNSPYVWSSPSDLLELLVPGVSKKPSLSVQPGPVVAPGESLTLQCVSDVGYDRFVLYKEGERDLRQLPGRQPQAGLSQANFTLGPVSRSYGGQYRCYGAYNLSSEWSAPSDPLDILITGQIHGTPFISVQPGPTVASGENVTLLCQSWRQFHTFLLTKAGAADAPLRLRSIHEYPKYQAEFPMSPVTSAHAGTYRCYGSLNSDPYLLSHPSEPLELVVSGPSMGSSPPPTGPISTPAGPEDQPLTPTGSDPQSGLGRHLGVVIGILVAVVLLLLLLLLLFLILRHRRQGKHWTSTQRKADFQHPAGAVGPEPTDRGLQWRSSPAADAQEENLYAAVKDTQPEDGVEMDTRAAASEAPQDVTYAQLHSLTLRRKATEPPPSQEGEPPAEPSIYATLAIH
row,IC50 [µg/mL],Binder
1,0.022,B1
2,0.03,B2
3,0.025,B3

# Target: T1, human LILRB1 expressed on cells
# Assay: flow cytometry, Jurkat-LILRB1 cells; blocked ligand: APC HLA-G trimer tetramer
row,IC50 [µg/mL],Binder
1,0.501,B1
2,0.427,B2
3,0.138,B3

# Target: T1, human LILRB1 expressed on cells
# Assay: flow cytometry, CHO-LILRB1 cells
row,EC50 [µg/mL],Binder
1,1.72,B4
2,1.13,B5
3,2.66,B6
4,2.01,B7
5,0.768,B8

# Target: T1, human LILRB1 expressed on cells
# Assay: flow cytometry, CHO-LILRB1 cells
# Remark: another data set of the same source
EC50 [µg/mL],gMFI (max),Binder
0.264,29900,B9
2.35,50600,B10
1.02,35700,B4
1.46,40000,B5
1.99,49300,B7
1.08,46500,B8
1.83,40300,B11

# Target: T1, human LILRB1 expressed on cells
# Assay: flow cytometry, CHO-LILRB1 cells; blocked ligand: APC HLA-G trimer tetramer
row,IC50 [µg/mL],Binder
1,0.569,B4
2,0.367,B5
3,1.18,B6
4,0.758,B7
5,0.26,B8

# Target: T2, human LILRB2 expressed on cells
# Assay: flow cytometry, CHO-LILRB2 cells
EC50 [µg/mL],gMFI (max),Binder
0.058,18500,B9
0.894,25600,B10
0.435,23900,B4
1.2,21600,B5
0.911,26300,B7
0.565,24800,B8
0.836,26600,B11

# Target: T2, human LILRB2 expressed on cells
# Assay: flow cytometry, Jurkat-LILRB2 cells
row,EC50 [µg/mL],Binder
1,0.111,B1
2,0.145,B2
3,0.131,B3

# Target: T3, LILRB1-ECD-HIS (SinoBiological Cat #: 16014-H02H) (human, UniProt Q8NHL6 24-461)
# T3 construct: Bought protein; also called monomeric antigen LILRB1-ECD-HIS; not shown: His tag
# Assay: SPR (Carterra LSA), antibody captured, antigen injected;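 also: kd obtained from kinetic analysis of antibody binding to the antigen, with association and dissociation phases fitted in the instrument software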
# T3 sequence (Q8NHL6 other isoform, or with tags, fused parts or gaps H02H H02H): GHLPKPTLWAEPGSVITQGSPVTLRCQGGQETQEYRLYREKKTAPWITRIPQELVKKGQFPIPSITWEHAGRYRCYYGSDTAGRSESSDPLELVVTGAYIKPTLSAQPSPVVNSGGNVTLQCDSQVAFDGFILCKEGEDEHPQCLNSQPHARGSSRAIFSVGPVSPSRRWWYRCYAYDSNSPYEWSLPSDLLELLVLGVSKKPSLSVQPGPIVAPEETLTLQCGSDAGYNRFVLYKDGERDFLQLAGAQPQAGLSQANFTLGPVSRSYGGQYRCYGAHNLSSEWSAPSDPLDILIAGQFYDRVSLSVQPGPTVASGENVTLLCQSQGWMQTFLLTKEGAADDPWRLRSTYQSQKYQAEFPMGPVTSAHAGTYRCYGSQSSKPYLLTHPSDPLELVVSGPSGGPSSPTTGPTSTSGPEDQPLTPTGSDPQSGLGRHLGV
row,Kd [nM],Binder
1,57.1,B9
2,0.667,B10
3,23.2,B12
4,28.7,B13
5,7.65,B14
6,1.19,B15
7,0.556,B4
8,0.417,B5
9,1.18,B16
10,34.4,B17
11,0.714,B6
12,0.588,B7
13,3.44,B18
14,10.4,B19
15,1.6,B20
16,0.64,B8
17,1.36,B21
18,20,B22
19,0.882,B11

# Target: T4, LILRB2-ECD-HIS (SinoBiological Cat #: 14132-H02H) (human, UniProt Q8N423 22-460)
# T4 construct: Bought protein; also called monomeric antigen LILRB2-ECD-HIS; not shown: His tag
# Assay: as above
# T4 sequence (Q8N423 other isoform, or with tags, fused parts or gaps H02H H02H): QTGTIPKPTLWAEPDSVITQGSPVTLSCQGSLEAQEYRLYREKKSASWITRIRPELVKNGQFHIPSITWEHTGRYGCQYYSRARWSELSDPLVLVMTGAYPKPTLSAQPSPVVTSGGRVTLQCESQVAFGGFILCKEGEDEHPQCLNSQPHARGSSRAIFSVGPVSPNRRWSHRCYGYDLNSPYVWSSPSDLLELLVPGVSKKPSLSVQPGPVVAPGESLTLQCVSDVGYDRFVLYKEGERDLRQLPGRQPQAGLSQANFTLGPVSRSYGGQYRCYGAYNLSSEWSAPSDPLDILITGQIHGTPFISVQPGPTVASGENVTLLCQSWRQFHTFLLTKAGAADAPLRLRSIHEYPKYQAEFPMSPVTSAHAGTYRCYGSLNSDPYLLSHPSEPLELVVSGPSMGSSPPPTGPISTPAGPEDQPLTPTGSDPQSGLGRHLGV
row,Kd [nM],Binder
1,0.542,B9
2,0.1,B10
3,0.624,B12
4,1.59,B13
5,0.636,B14
6,0.2,B15
7,0.0481,B4
8,0.0213,B5
9,0.0476,B16
10,3.05,B17
11,0.0385,B6
12,0.0323,B7
13,0.145,B18
14,0.617,B19
15,0.2,B20
16,0.191,B8
17,0.0526,B21
18,1.26,B22
19,0.0385,B11
